From patent publication US10428140B2, “Anti-EphA4 antibody” (EISAI R&D MANAGEMENT CO., LTD., priority 2015, dated 2019)

Tests used:
Experiment in all cases: Selectivity ELISA of humanized antibodies for human Eph receptor
Assay type in all cases: binding
Details in all cases: coated protein 1 nM
[1] = target: T1, human EphA3 (Homo sapiens, UniProt P29320)
T1 construct: a protein of the extracellular region of each human Eph receptor fused with the SEAP protein and the His tag; made in house; host or cells: Expi293F cells (culture supernatant)
T1 sequence (P29320 21-541 limits assumed): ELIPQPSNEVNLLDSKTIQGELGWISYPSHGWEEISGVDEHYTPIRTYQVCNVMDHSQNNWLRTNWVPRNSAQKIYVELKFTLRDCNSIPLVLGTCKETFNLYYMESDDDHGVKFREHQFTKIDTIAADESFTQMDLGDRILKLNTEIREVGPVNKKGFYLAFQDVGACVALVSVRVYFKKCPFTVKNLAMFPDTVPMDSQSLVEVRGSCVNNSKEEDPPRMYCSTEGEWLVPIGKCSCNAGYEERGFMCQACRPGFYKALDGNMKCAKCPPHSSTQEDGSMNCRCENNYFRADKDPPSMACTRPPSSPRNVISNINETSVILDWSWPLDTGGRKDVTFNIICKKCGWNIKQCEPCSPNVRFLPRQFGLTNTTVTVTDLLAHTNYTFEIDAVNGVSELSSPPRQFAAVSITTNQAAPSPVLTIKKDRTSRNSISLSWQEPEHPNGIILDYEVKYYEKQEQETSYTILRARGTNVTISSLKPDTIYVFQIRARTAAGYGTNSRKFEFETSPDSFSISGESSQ
Procedure, shortened: (§1)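 Read-out is A450 after TMB development stopped with 1N H2SO4. Plates bore anti-His-captured human Eph extracellular region-SEAP-His proteins at 1 nM final, made in Expi293F cells. Humanized antibody binding ran 1 h at room temperature before HRP-labeled anti-IgG detection.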

[2] = target: T2, human EphA7 (Homo sapiens, UniProt Q15375)
T2 construct: a protein of the extracellular region of each human Eph receptor fused with the SEAP protein and the His tag; made in house; host or cells: Expi293F cells (culture supernatant)
T2 sequence (Q15375 28-555 limits assumed): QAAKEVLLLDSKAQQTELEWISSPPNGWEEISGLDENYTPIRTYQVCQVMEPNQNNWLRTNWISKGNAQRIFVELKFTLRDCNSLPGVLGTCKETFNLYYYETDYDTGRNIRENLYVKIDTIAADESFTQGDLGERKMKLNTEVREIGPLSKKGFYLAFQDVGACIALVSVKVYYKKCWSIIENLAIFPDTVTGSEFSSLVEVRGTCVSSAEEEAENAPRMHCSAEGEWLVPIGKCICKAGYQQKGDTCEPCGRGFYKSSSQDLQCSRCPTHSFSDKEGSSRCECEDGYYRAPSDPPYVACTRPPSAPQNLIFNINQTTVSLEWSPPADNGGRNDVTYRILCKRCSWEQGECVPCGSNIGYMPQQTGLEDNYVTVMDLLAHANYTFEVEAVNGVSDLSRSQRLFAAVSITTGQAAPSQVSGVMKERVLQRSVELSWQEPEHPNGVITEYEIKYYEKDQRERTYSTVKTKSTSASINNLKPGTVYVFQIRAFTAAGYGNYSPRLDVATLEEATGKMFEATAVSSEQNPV
Procedure, shortened: as §1

[3] = target: T3, human EphA8 (Homo sapiens, UniProt P29322)
T3 construct: a protein of the extracellular region of each human Eph receptor fused with the SEAP protein and the His tag; made in house; host or cells: Expi293F cells (culture supernatant)
T3 sequence (P29322 28-542 limits assumed): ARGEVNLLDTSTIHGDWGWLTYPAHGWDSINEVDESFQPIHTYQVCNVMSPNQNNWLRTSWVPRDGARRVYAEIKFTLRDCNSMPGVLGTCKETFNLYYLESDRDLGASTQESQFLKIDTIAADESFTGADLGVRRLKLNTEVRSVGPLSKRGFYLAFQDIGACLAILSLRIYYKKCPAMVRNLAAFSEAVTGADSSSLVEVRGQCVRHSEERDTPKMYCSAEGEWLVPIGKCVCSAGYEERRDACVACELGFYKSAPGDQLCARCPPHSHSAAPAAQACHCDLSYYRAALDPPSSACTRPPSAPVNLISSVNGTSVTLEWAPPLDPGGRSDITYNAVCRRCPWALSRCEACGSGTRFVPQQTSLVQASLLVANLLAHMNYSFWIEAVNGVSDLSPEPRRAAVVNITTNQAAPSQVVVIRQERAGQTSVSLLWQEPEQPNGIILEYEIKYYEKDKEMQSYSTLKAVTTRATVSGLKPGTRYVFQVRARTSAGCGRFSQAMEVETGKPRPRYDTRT
Procedure, shortened: as §1

B1: 159 (antibody, V domains shown)
VH: QVQLVQSGSELKKPGASVKVSCKASGYTFTDYSMHWVRQAPGQGLKWMGWINTETGEPTYADDFKGRFVFSLDTSVSTAYLQISSLKAEDTAVYYCARIPLYYYGSRYWYFDVWGQGTTVTVSS
VL: DIQMTQSPSSLSASVGDRVTITCRASENIYRNLAWYQQKPGKAPQLLLYAATNLADGVPSRFSGSGSGTDYTLTISSLQPEDFATYYCQHFWGTPWTFGQGTKVEIK
modifications: synthetic humanized antibody heavy chain variable region sequence; synthetic humanized antibody light chain variable region sequence
hEphA3-SEAP-: absorbance at 450 nm, percentage with respect to hEphA4-SEAP-His as 100% [1]: 5.4%
hEphA7-SEAP-: absorbance at 450 nm, percentage with respect to hEphA4-SEAP-His as 100% [2]: 5.5%
hEphA8-SEAP-: absorbance at 450 nm, percentage with respect to hEphA4-SEAP-His as 100% [3]: 5.5%

B2: 133 (antibody, V domains shown)
VH: QVQLVQSGSELKKPGASVKVSCKASGYTFTDYSMHWVRQAPGQGLEWMGWINTETGEPTYAQGFTGRFVFSLDTSVSTAYLQISSLKAEDTAVYYCARIPLYYYGSRYWYFDVWGQGTTVTVSS
VL: EIVMTQSPATLSVSPGERATLSCRASENIYRNLAWYQQKPGQSPRLLIYAATNLADGIPARFSGSGSGTEYTLTISSLQSEDFAVYYCQHFWGTPWTFGQGTKVEIK
modifications: synthetic humanized antibody heavy chain variable region sequence; synthetic humanized antibody light chain variable region sequence
hEphA3-SEAP-: absorbance at 450 nm, percentage with respect to hEphA4-SEAP-His as 100% [1]: 5.0%
hEphA7-SEAP-: absorbance at 450 nm, percentage with respect to hEphA4-SEAP-His as 100% [2]: 4.6%
hEphA8-SEAP-: absorbance at 450 nm, percentage with respect to hEphA4-SEAP-His as 100% [3]: 4.7%

B3: 160 (antibody, V domains shown)
VH: QIQLVQSGSELKKPGASVKVSCKASGYTFTDYSMHWVRQAPGQGLKWMGWINTETGEPTYADDFKGRFVFSLDTSVSTAYLQISSLKAEDTAVYYCARIPLYYYGSRYWYFDVWGQGTTVTVSS
VL: DIQMTQSPSSLSASVGDRVTITCRASENIYRNLAWYQQKPGKAPQLLLYAATNLADGVPSRFSGSGSGTDYTLTISSLQPEDFATYYCQHFWGTPWTFGQGTKVEIK
modifications: synthetic humanized antibody heavy chain variable region sequence; synthetic humanized antibody light chain variable region sequence
hEphA3-SEAP-: absorbance at 450 nm, percentage with respect to hEphA4-SEAP-His as 100% [1]: 6.2%
hEphA7-SEAP-: absorbance at 450 nm, percentage with respect to hEphA4-SEAP-His as 100% [2]: 6.1%
hEphA8-SEAP-: absorbance at 450 nm, percentage with respect to hEphA4-SEAP-His as 100% [3]: 5.4%

B4: 132 (antibody, V domains shown)
VH: QIQLVQSGSELKKPGASVKVSCKASGYTFTDYSMHWVRQAPGQGLKWMGWINTETGEPTYAQGFTGRFVFSLDTSVSTAYLQISSLKAEDTAVYYCARIPLYYYGSRYWYFDVWGQGTTVTVSS
VL: EIVMTQSPATLSVSPGERATLSCRASENIYRNLAWYQQKPGQSPRLLIYAATNLADGIPARFSGSGSGTEYTLTISSLQSEDFAVYYCQHFWGTPWTFGQGTKVEIK
modifications: synthetic humanized antibody heavy chain variable region sequence; synthetic humanized antibody light chain variable region sequence
hEphA3-SEAP-: absorbance at 450 nm, percentage with respect to hEphA4-SEAP-His as 100% [1]: 4.8%
hEphA7-SEAP-: absorbance at 450 nm, percentage with respect to hEphA4-SEAP-His as 100% [2]: 4.5%
hEphA8-SEAP-: absorbance at 450 nm, percentage with respect to hEphA4-SEAP-His as 100% [3]: 4.7%

B5: 135 (antibody, V domains shown)
VH: QVQLVQSGSELKKPGASVKVSCKASGYTFTDYSMHWVRQAPGQGLEWMGWINTETGEPTYADDFKGRFVFSLDTSVSTAYLQISSLKAEDTAVYYCARIPLYYYGSRYWYFDVWGQGTTVTVSS
VL: EIVMTQSPATLSVSPGERATLSCRASENIYRNLAWYQQKPGQSPRLLIYAATNLADGIPARFSGSGSGTEYTLTISSLQSEDFAVYYCQHFWGTPWTFGQGTKVEIK
modifications: synthetic humanized antibody heavy chain variable region sequence; synthetic humanized antibody light chain variable region sequence
hEphA3-SEAP-: absorbance at 450 nm, percentage with respect to hEphA4-SEAP-His as 100% [1]: 5.0%
hEphA7-SEAP-: absorbance at 450 nm, percentage with respect to hEphA4-SEAP-His as 100% [2]: 5.2%
hEphA8-SEAP-: absorbance at 450 nm, percentage with respect to hEphA4-SEAP-His as 100% [3]: 5.0%

B6: 75 (antibody)
VH: QVQLVQSGSELKKPGASVKVSCKASGYTFTDYSMHWVRQAPGQGLEWMGWINTETGEPTYAQGFTGRFVFSLDTSVSTAYLQISSLKAEDTAVYYCARIPLYYYGSRYWYFDVWGQGTTVTVSS
VL: DIQMTQSPSSLSASVGDRVTITCRASENIYRNLAWYQQKPGKAPKLLVYAATNLADGVPSRFSGSGSGTDYTLTISSLQPEDFATYYCQHFWGTPWTFGQGTKVEIK
chain: ASTKGPSVFPLAPSSKSTSGGTAALGCLVKDYFPEPVTVSWNSGALTSGVHTFPAVLQSSGLYSLSSVVTVPSSSLGTQTYICNVNHKPSNTKVDKRVEPKSCDKTHTCPPCPAPPAAAPSVFLFPPKPKDTLMISRTPEVTCVVVDVSHEDPEVQFNWYVDGVEVHNAKTKPREEQFNSTFRVVSVLTVVHQDWLNGKEYKCKVSNKGLPAPIEKTISKTKGQPREPQVYTLPPSREEMTKNQVSLTCLVKGFYPSDIAVEWESNGQPENNYKTTPPMLDSDGSFFLYSKLTVDKSRWQQGNVFSCSVMHEALHNHYTQKSLSLSPG
modifications: synthetic humanized antibody heavy chain variable region sequence; synthetic humanized antibody light chain variable region sequence; synthetic antibody constant region sequence
hEphA3-SEAP-: absorbance at 450 nm, percentage with respect to hEphA4-SEAP-His as 100% [1]: 4.8%
hEphA7-SEAP-: absorbance at 450 nm, percentage with respect to hEphA4-SEAP-His as 100% [2]: 4.7%
hEphA8-SEAP-: absorbance at 450 nm, percentage with respect to hEphA4-SEAP-His as 100% [3]: 4.8%

B7: 134 (antibody, V domains shown)
VH: QVQLVQSGSELKKPGASVKVSCKASGYTFTDYSMHWVRQAPGQGLKWMGWINTETGEPTYAQGFTGRFVFSLDTSVSTAYLQISSLKAEDTAVYYCARIPLYYYGSRYWYFDVWGQGTTVTVSS
VL: EIVMTQSPATLSVSPGERATLSCRASENIYRNLAWYQQKPGQSPRLLIYAATNLADGIPARFSGSGSGTEYTLTISSLQSEDFAVYYCQHFWGTPWTFGQGTKVEIK
modifications: synthetic humanized antibody heavy chain variable region sequence; synthetic humanized antibody light chain variable region sequence
hEphA3-SEAP-: absorbance at 450 nm, percentage with respect to hEphA4-SEAP-His as 100% [1]: 5.0%
hEphA7-SEAP-: absorbance at 450 nm, percentage with respect to hEphA4-SEAP-His as 100% [2]: 5.1%
hEphA8-SEAP-: absorbance at 450 nm, percentage with respect to hEphA4-SEAP-His as 100% [3]: 5.7%
